Reference: paper PMC2898018

Molecular target: His-tagged WRN (E84A) (human) (UniProt Q14191)
UniProt Q14191, sequence (Q14191 whole entry E84A): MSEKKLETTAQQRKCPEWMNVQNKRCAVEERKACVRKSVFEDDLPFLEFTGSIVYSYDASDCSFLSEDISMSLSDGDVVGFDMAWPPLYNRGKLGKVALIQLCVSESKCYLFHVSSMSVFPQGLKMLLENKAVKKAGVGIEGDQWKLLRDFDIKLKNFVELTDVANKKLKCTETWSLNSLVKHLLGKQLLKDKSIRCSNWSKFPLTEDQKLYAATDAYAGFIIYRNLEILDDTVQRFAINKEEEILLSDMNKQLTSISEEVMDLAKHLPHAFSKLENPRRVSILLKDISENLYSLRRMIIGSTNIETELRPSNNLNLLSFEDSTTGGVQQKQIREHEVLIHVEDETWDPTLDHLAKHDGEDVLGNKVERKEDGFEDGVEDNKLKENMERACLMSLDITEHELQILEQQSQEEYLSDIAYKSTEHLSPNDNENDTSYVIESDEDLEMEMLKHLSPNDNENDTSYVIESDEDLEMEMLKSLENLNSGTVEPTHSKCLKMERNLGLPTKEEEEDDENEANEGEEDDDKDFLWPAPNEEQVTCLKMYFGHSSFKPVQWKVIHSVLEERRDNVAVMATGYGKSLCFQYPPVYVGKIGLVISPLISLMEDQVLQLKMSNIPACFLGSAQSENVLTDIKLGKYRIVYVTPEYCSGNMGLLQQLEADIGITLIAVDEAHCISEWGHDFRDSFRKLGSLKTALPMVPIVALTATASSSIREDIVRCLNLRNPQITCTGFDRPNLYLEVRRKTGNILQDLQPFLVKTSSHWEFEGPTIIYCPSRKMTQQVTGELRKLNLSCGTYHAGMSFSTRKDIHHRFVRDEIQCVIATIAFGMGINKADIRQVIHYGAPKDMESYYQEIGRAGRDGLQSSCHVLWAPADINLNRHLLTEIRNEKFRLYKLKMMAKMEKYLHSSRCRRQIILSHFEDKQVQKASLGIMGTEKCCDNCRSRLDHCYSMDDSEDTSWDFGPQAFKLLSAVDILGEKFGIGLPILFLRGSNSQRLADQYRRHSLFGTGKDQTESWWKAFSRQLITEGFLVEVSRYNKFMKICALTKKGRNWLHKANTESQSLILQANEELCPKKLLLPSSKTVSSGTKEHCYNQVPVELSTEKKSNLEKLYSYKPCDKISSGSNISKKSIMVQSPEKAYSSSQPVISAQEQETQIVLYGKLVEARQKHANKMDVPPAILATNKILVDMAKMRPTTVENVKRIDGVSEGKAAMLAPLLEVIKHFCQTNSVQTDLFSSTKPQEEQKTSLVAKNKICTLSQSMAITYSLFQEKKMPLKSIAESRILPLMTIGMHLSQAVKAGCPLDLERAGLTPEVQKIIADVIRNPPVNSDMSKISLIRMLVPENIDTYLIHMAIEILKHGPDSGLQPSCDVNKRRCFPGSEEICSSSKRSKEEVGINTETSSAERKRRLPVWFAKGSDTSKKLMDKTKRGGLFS

## DNA-PKcs, the catalytic subunit of DNA-PK (from UniProt P78527 1-4128) (enzyme)
  unwinding of the telomeric D-loop substrate by WRN (E84A) (3.3 nM) preincubated with DNA-PKcs (16.7 nM), native gel; 3.3% unwound in the absence of DNA-PKcs: 66%
